# Publication doi:10.1101/2024.09.02.610899
# Molecular target: POTRA domains of Toc75 (Toc75-POTRA) (Chlamydomonas reinhardtii)
# Assay: SPR
substance,measurement,value
"Tic22 (recombinant, His-tagged) (natural protein)",Kd,5.22 µM
